# Laboratory results from the supplement of paper PMC12764529.
# ± gives the half width of the 95% confidence interval.
# Assay: folding stability dG unfold from chymotrypsin proteolysis; higher = more stable
# In short: (§1)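 Unfolding free energy was derived, per protease or combined, against a sequence-predicted unfolded-state K50 and a shared folded-state K50, starting from K50 inferred by Bayesian fitting of sequencing counts. Digestion with trypsin and chymotrypsin was carried out on designed mini-proteins under 80 residues without cysteine in a PA-tagged cDNA display construct. Only designs with AlphaFold2 dimer inter-PAE above 15 were kept.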
row,Sequence,folding stability dG unfold
1,SAGGSAGGSAGGKKIIKVPLKNAEKIKKELKKKYKIKKVKIEKNKDGSKYIYIEVEKPKSAGGSAGGSAGGS [r10_1219_TrROS_Hall],7.08 ± 0.669 kJ/mol
2,SAGGSAGGSAGGKKPKVKVIKLTLTVTKLTEKDGKLTLEKKTITLTAVIDPETGKIHLLSAGGSAGGSAGGS [r10_533_TrROS_Hall],14.6 ± 0.372 kJ/mol
3,MKETVTVDITVVVEDENGKKHLVRVKVTVEKLPDGTYRVTIEVENLETGKTETIEIEVKGAEFKPGDVIEIS [r1_14_TrROS_Hall],10.7 ± 0.628 kJ/mol
4,SAGGSAGGSAGGSIEINIMFELPNGLIFRISTTIEPNPDGNLKLDIDIEVIPIKPGQPISAGGSAGGSAGGS [r10_241_TrROS],17.5 ± 0.544 kJ/mol
5,SAGGSAGGIRINPENGQIYFPLENGKAKSVPFKPGQEREIPNGWRITIKPDPPGPWEIEVKPLDSAGGSAGG [r6_296_TrROS],-2.42 ± 2.55 kJ/mol
6,SAGGSAGGSASIEVAAPPDATVTITTEITRKLPAGAKLPNGVVASADETLKETVTTTITVLGSAGGSAGGSA [r18_450_JUSTAS],3.42 ± 0.197 kJ/mol
7,SAGGNWTIEVEIEENPDGPYRITIRYRAPNGEEHKVTMWFDPDNGTFPIKLPGPLPPDQIEDIEIWPSAGGS [r16_95_TrROS],21.1 ± 1 kJ/mol
8,SAGGSAGGGEPFVIRVELEWPNNNSIPFNIPFPPGDAITAAKNIASPLRKMGRPIKIKITDIYPSAGGSAGG [r6_721_TrROS],0.35 ± 1.72 kJ/mol
9,SAGPIIIRVKYPDGRQIDINPENPWQIQIWDPGGKKETYPFDSNEDAKDKVVDWLGEEHGWPIKDVEIVSAG [r5_119_TrROS],1.46 ± 0.247 kJ/mol
10,SKKPKIKIEIEIVEITEVKYDKKTNKITVKVKVKIKIEVEVNGKKKKIEIEIPKNMTLEEILKKLKELLKSA [r9_656_TrROS_Hall],8.32 ± 0.502 kJ/mol
11,SAGGSAGGSAGGKMYLIKVKVDGEEKLIKVKSLEEAKKLLEEKGYKIESVEIFEVEEEEESAGGSAGGSAGG [r7_726_TrROS_Hall],17 ± 0.247 kJ/mol
12,SAGGMSALRIVAENLPEDARVVLPDGRVFPPGVELELPLEADLDVVVALDEDGRVHHVERVPLDRPLLSAGG [r13_441_TrMRF],-2.1 ± 0.879 kJ/mol
13,SAGGSAGGSATIRIPWDKIKDALEEHDMTVTNIEPNPGGNPWVEIEVNGTPEQREKIQEALKSAGGSAGGSA [r18_175_TrROS],1.07 ± 0.628 kJ/mol
14,SAGKVEIVVTYPDGSKAVIDSDNPLVFTITDPDGNSSTISGTGFDEALLKIVELLKEKTGKPVEKVEIKSAG [r5_119_TrMRF],9.073 ± 0.0879 kJ/mol
15,SAGGSAGGSAGGAMAPDEPVERVEVTYKTGRLTFPGKPVLKKEKVVLKFTLTVTDPALLSAGGSAGGSAGGS [r10_745_JUSTAS],-0.0952 ± 1.17 kJ/mol
16,SAGGSAGGSAGMTPVEITDPNSDKTYTYDPEKKTLTKYYPGEGKTETFPLTSEEEAKKLLSAGGSAGGSAGG [r11_936_JUSTAS],1.66 ± 0.289 kJ/mol
17,SAGGSAMTAEEVEEKVREAFAALGVEAEVEVRESPEGGLEVLVVTGEDADLEEVKAALEELFGTDISAGGSA [r15_807_TrMRF],10.5 ± 0.268 kJ/mol
18,SDEGYKVEINPMIHRTDGKVTIMFMIQIKPGLDDLKIKIKLRLPDGKPMKVDYQRNPDNGFIMVSATMPPSA [r9_159_TrROS],17.6 ± 0.276 kJ/mol
19,SAGGSAGGSDPPVVTVEVKEETLPNGEKIYIVTVTREDGTTKTLKFPASTSEEEIKEKVEKLLSAGGSAGGS [r12_1019_JUSTAS],17.1 ± 0.753 kJ/mol
20,SSSLDYVFKDIDPSSPNKLTLSEIKPVPESDKVVNKIVFPTKTILVTFDSAEDAEAHIGLLLKLFGSPPESA [r9_258_TrMRF],3.87 ± 0.502 kJ/mol
21,SAGMSFTVTTVGSPGPTTPRVVIEPPDRVVVISRLPDGSYEVRYYDPSPPVELERRRLAPEEAIAELLSAGG [r19_188_JUSTAS],2.71 ± 0.41 kJ/mol

# Assay: folding stability dG unfold (combined trypsin and chymotrypsin); higher = more stable
# In short: as §1
row,Sequence,folding stability dG unfold
1,SAMIMIRVEYPNGKTWPIMIPLRTPDGDPTKEEVEEIAERIADEIAEEHGGDNVKIEIQVMPMPPEENPSAG [r14_378_TrROS],7.63 ± 1 kJ/mol
2,SAMTPETERKLLEAPKTGDVEAVREAAEEIEKEYPGKGLVVTVTVSPLSDGTWEVEVTVELPPNLPELASAG [r14_690_JUSTAS],1.83 ± 1.59 kJ/mol
3,SAGGPTLKVKIYLPEEGKVIEFTFEAKKDEAEKIAKELEKLFPGYKLEGVKIFETPDSIELLAVASPESAGG [r13_196_TrMRF],14.7 ± 0.289 kJ/mol
4,SAGGSAGGSAKHRVDDIQPQRHKNPDGEKPVRVRFPDNGQEERIPADNLDDIDVSDGMEVEPSAGGSAGGSA [r18_288_TrROS],-3.58 ± 0.837 kJ/mol
5,SALTLEELEKRYPELPSELLEKIKEEAEKVPKDRTLTFLLTAPDGRRVRITVTKPDTVTVTVLPPGVPEASA [r9_1024_JUSTAS],17.3 ± 0.586 kJ/mol
6,SAGGSDNKPFRIEPTGVDSVEANPDGMVEIEWRFRLPNGYVLTWRETINPKNGKPSIEPTLVPPGESAGGSA [r2_321_TrROS],3.78 ± 0.356 kJ/mol
7,SAGGSAGGSAMVTIAFPDGTVVEIPASLSEEEVEAEAERLAKERAAGVRPVDVTVESIEPPGSAGGSAGGSA [r18_213_JUSTAS],4.47 ± 0.289 kJ/mol
8,SAGGGVPLTRSEPLGEIEFPEENIKLKISRYTSPLDGTEYIEITTDYGEGTSTSIYPPGEIEEILGGSAGGS [r16_603_JUSTAS],3.8 ± 0.753 kJ/mol
9,SMKTITIPADTLSPEEIEALLKELGFDPEKIKISTEGDKLVVTVPDMIVFLTPPPPVPTVPPTNPERLAALS [r1_57_JUSTAS],1.3 ± 0.628 kJ/mol
10,SAGMKEIKIKDAKIEVKKKKDGKKVKRITLKDGKEIEIKEDGSIIIRNKKTGKYIKLPKNMTIEELLKKSAG [r5_348_TrROS_Hall],6.2 ± 0.41 kJ/mol
11,SAGFKIKIEPDKNMPPGQKPMTEEELKKIAKSIAKQMEQDPGNPGKEVKIEIPFYFPDGYWYRIEIEKSAGG [r19_132_TrROS],2.12 ± 1.42 kJ/mol
12,SAGGSAGGSASTSEKIDYPNPPITVTRLPNGVVLVTYSDSNTTTVIPESVLATLPPTVPLFSAGGSAGGSAG [r3_256_JUSTAS],5.57 ± 0.18 kJ/mol
13,SAGGSAGGSAMKTFTKTFSSPEEAERAAEEIKEKLEKEGKKVKITFEKPETDTYIVTITIESAGGSAGGSAG [r3_211_JUSTAS],16 ± 0.795 kJ/mol
14,SAGGSAGGSAGEMYKIKIFNKETGKELTLVFESEEEAKEALKKKFPNAKIEIEKISKEELSAGGSAGGSAGG [r11_978_TrROS_Hall],11.7 ± 0.962 kJ/mol
15,SMVQGTVLPPNGQRLTFEFDPAGTAQERAEQVRALLEALLPPDLKIEVERVEPDRPISADEPGTVLARADSA [r9_178_TrMRF],-1.04 ± 1.17 kJ/mol
16,SAGGSAGGPIVIKVKSLEEAKELVEKLAKELTPENVKVEIKEVFEPENSYYVVIEIKTASPEEESAGGSAGG [r6_72_TrMRF],11.1 ± 0.92 kJ/mol
17,SAGGSAGGSAVPPDRPFTLPVLTLVRDPETGELYLARAEVTFLAPDPVITAARLEVFPPDADFSAGGSAGGS [r12_868_TrMRF],5.59 ± 0.377 kJ/mol
18,SAGGSAGGKPVTVEVDIVVKPGDTIEFPPGAKVEIVEKKEVEVNGKKYQVFKIKVTLPPGEEALSAGGSAGG [r6_454_TrROS_Hall],11.4 ± 0.962 kJ/mol
19,SAGGSAGGSAPLPPLTPEQVKALVEELKKKGYKVKKVTVVEVNGELYVFVEVDGKLYRIKVSAGGSAGGSAG [r3_395_TrROS_Hall],17.7 ± 0.268 kJ/mol
20,SMLPLLPPRRLLIEVVFPLPEDATPEQLELAERAAEALADVLEALGFKDVRVLVEPTDPGDVLILAEVEASA [r9_865_TrMRF],7.61 ± 0.31 kJ/mol
21,SAGGKTVTIKAKSLEDALKAIEALPSVDKVTITVEVNGKTVTITLTVKPPPPVKYELDKNGKLVKKEKSAGG [r13_183_TrROS_Hall],5.35 ± 1.05 kJ/mol

row,Sequence,folding stability dG unfold
1,SAGGSAGGSAGGKKIIKVPLKNAEKIKKELKKKYKIKKVKIEKNKDGSKYIYIEVEKPKSAGGSAGGSAGGS [r10_1219_TrROS_Hall],6.26 ± 0.962 kJ/mol
2,SAGGSAGGSAGGKKPKVKVIKLTLTVTKLTEKDGKLTLEKKTITLTAVIDPETGKIHLLSAGGSAGGSAGGS [r10_533_TrROS_Hall],14.6 ± 0.669 kJ/mol
3,MKETVTVDITVVVEDENGKKHLVRVKVTVEKLPDGTYRVTIEVENLETGKTETIEIEVKGAEFKPGDVIEIS [r1_14_TrROS_Hall],12 ± 0.502 kJ/mol
4,SAGGSAGGSAGGSIEINIMFELPNGLIFRISTTIEPNPDGNLKLDIDIEVIPIKPGQPISAGGSAGGSAGGS [r10_241_TrROS],16.5 ± 0.962 kJ/mol
5,SAGGSAGGIRINPENGQIYFPLENGKAKSVPFKPGQEREIPNGWRITIKPDPPGPWEIEVKPLDSAGGSAGG [r6_296_TrROS],-2.09 ± 0.92 kJ/mol
6,SAGGSAGGSASIEVAAPPDATVTITTEITRKLPAGAKLPNGVVASADETLKETVTTTITVLGSAGGSAGGSA [r18_450_JUSTAS],1.52 ± 1.42 kJ/mol
7,SAGGNWTIEVEIEENPDGPYRITIRYRAPNGEEHKVTMWFDPDNGTFPIKLPGPLPPDQIEDIEIWPSAGGS [r16_95_TrROS],20.6 ± 0.795 kJ/mol
8,SAGGSAGGGEPFVIRVELEWPNNNSIPFNIPFPPGDAITAAKNIASPLRKMGRPIKIKITDIYPSAGGSAGG [r6_721_TrROS],1.75 ± 0.669 kJ/mol
9,SAGPIIIRVKYPDGRQIDINPENPWQIQIWDPGGKKETYPFDSNEDAKDKVVDWLGEEHGWPIKDVEIVSAG [r5_119_TrROS],1.69 ± 0.46 kJ/mol
10,SKKPKIKIEIEIVEITEVKYDKKTNKITVKVKVKIKIEVEVNGKKKKIEIEIPKNMTLEEILKKLKELLKSA [r9_656_TrROS_Hall],9.52 ± 2.43 kJ/mol
11,SAGGSAGGSAGGKMYLIKVKVDGEEKLIKVKSLEEAKKLLEEKGYKIESVEIFEVEEEEESAGGSAGGSAGG [r7_726_TrROS_Hall],17.1 ± 0.305 kJ/mol
12,SAGGMSALRIVAENLPEDARVVLPDGRVFPPGVELELPLEADLDVVVALDEDGRVHHVERVPLDRPLLSAGG [r13_441_TrMRF],-1.63 ± 0.414 kJ/mol
13,SAGGSAGGSATIRIPWDKIKDALEEHDMTVTNIEPNPGGNPWVEIEVNGTPEQREKIQEALKSAGGSAGGSA [r18_175_TrROS],1.31 ± 0.502 kJ/mol
14,SAGKVEIVVTYPDGSKAVIDSDNPLVFTITDPDGNSSTISGTGFDEALLKIVELLKEKTGKPVEKVEIKSAG [r5_119_TrMRF],7.38 ± 0.586 kJ/mol
15,SAGGSAGGSAGGAMAPDEPVERVEVTYKTGRLTFPGKPVLKKEKVVLKFTLTVTDPALLSAGGSAGGSAGGS [r10_745_JUSTAS],0.0423 ± 0.628 kJ/mol
16,SAGGSAGGSAGMTPVEITDPNSDKTYTYDPEKKTLTKYYPGEGKTETFPLTSEEEAKKLLSAGGSAGGSAGG [r11_936_JUSTAS],0.532 ± 0.335 kJ/mol
17,SAGGSAMTAEEVEEKVREAFAALGVEAEVEVRESPEGGLEVLVVTGEDADLEEVKAALEELFGTDISAGGSA [r15_807_TrMRF],10.4 ± 0.326 kJ/mol
18,SDEGYKVEINPMIHRTDGKVTIMFMIQIKPGLDDLKIKIKLRLPDGKPMKVDYQRNPDNGFIMVSATMPPSA [r9_159_TrROS],14.8 ± 0.586 kJ/mol
19,SAGGSAGGSDPPVVTVEVKEETLPNGEKIYIVTVTREDGTTKTLKFPASTSEEEIKEKVEKLLSAGGSAGGS [r12_1019_JUSTAS],17.4 ± 1.46 kJ/mol
20,SSSLDYVFKDIDPSSPNKLTLSEIKPVPESDKVVNKIVFPTKTILVTFDSAEDAEAHIGLLLKLFGSPPESA [r9_258_TrMRF],3.57 ± 0.418 kJ/mol
21,SAGMSFTVTTVGSPGPTTPRVVIEPPDRVVVISRLPDGSYEVRYYDPSPPVELERRRLAPEEAIAELLSAGG [r19_188_JUSTAS],2.41 ± 0.322 kJ/mol
